In publication PMC9305627:

How the values were obtained:
Experiment in all cases: ELISA
UbV.ANKRD13D.4 L70A = UbV.ANKRD13D.4 L70A (UniProt P0CG47)
UbV.ANKRD13D.4 S65A = UbV.ANKRD13D.4 S65A (UniProt P0CG47)
UbV.ANKRD13D.4 T12A = UbV.ANKRD13D.4 T12A (UniProt P0CG47)
UbV.ANKRD13D.4 Q49A = UbV.ANKRD13D.4 Q49A (UniProt P0CG47)
UbV.ANKRD13D.4 W72A = UbV.ANKRD13D.4 W72A (UniProt P0CG47)

fold effect on affinity against UbV.ANKRD13D.4 (UbV.ANKRD13D.4 L70A): < 3 fold
fold effect on affinity against UbV.ANKRD13D.4 (UbV.ANKRD13D.4 S65A): < 3 fold
fold effect on affinity against UbV.ANKRD13D.4 (UbV.ANKRD13D.4 T12A): < 3 fold
fold effect on affinity against UbV.ANKRD13D.4 (UbV.ANKRD13D.4 Q49A): < 3 fold
fold effect on affinity against UbV.ANKRD13D.4 (UbV.ANKRD13D.4 W72A): < 3 fold
B1: UIM.ANKRD13D.4 peptide (peptide)
peptide: RGQQEEEDLQRILQLSLTEH
